Tests used:
[1] = biological target: T1, Cynomolgus PD-L1-his (90251-C08H, Sino Biological) (cynomolgus, UniProt G7PSE7 19-238); assay: ELISA, recombinant cynomolgus PD-L1, APC-labeled m1F11
T1 construct: Bought reagent; also called monkey PD-L1; soluble monkey PD-L1

[2] = biological target: T2, human PD-L1 on the cell surface (SP2/0 PD-L1 cells stably expressing human PD-L1); also human tumor cell lines … (human, UniProt Q9NZQ7 19-290); assay: flow cytometry, APC-labeled m1F11 on SP2/0 PD-L1 cells
T2 construct: whole, on cells; also called membrane huPD-L1; cell surface PD-L1

[3] = biological target: T3, Human PD-L1-hFc (B3040, Biointron Biological Inc.) (human, UniProt Q9NZQ7 19-238, limits assumed); assay: ELISA, recombinant human PD-L1, APC-labeled m1F11; recombinant human PD-L1, ELISA
T3 construct: also called recombinant human PD-L1-Fc; hu-PD-L1-Fc; not shown: human Fc of the bought fusion
T3 sequence (Q9NZQ7 19-238 limits assumed): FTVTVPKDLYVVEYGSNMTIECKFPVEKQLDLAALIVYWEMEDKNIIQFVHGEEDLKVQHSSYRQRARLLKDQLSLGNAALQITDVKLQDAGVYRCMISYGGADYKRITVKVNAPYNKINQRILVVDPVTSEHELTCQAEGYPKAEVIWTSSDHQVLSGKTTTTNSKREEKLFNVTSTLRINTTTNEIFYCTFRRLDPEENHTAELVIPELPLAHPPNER

[4] = biological target: T4, Mouse PD-L1-his (50010-MO8H, Sino Biological) (mouse, UniProt Q9EP73 19-238); assay: ELISA, m1F11 on recombinant mouse PD-L1, luminescence as percent of the highest value
T4 construct: Bought reagent; also called murine PD-L1; soluble mouse PD-L1; not shown: His tag

[5] = biological target: T4, Mouse PD-L1-his (50010-MO8H, Sino …); assay: ELISA, hu1F11 on soluble mouse PD-L1, luminescence as percent of the highest value
Text: Y-axis is the relative luminescence index generated by antibody/antigen binding and x-axis is the logarithm of antibody concentrations (ng/ml).

[6] = biological target: T2, human PD-L1 on the cell surface (SP2/0 …); assay: flow cytometry on SP2/0 PD-L1 cells pre-incubated with biotin-huPD-1-hFc; bound antibody detected with anti-human kappa-APC
[7] = biological target: T2, human PD-L1 on the cell surface (SP2/0 …); assay: flow cytometry, displacement of pre-bound biotin-huPD-1-hFc from SP2/0 PD-L1 cells, remaining PD-1 detected with streptavidin-FITC

T1 sequence (G7PSE7 entry or part of it C08H C08H limits assumed): as the sequence (Q9NZQ7 19-238 limits assumed) above, with A33T, A34S, S62N, R68Q, Q82R, F173L, T185A, T192I, H215L counted along it

Row | EC50 [1] | EC50 [2] | EC50 [3] | EC50 (read off the curve) [6] | IC50 (read off the curve) [7] | Binder | binding result [4] | binding result [5]
1 | 0.0464 µg/mL | 0.0629 µg/mL | 0.0393 µg/mL |  |  | m1F11 (murine anti-PD-L1 antibody from hybridoma clone 1F11) (antibody, V domains shown, Recombinant murine antibody expressed in CHO-S cells and used APC-labeled in the assays; also called 1F11-APC; murine version 1F11) VH: QGQMQQSGAELVKPGASVKLSCKTSGFTFSSSYISWLKQKSGQSLEWIAWIYAGTGGTGYNQKFTGKAQLTVDTSSSTAYMQFSSLTTEDSAIYYCAISASYRYDDLFAYWGQGTLVTVSA VL: QIVLTQSPAIMSASPGEKVTMTCSASSSVSSMHWYQQKSGTSPKRWIYDTSKLASGVPARFSGSGSGTSYSLTISSMETEDAATYYCQQWNSNPPTFGAGTKLELK | no binding (tested: log 3.9 on the axis (about 8000 ng/ml)) | 
2 |  |  |  | ~0.3 µg/mL | ~0.9 µg/mL | humanized 1F11 (hu1F11) (antibody, human IgG1, kappa, N297A, V domains shown, Expressed in 293T cells; also called huIF11; humanized IF11) VH: QVQLQQSGAELVKPGASVKLSCKTSGFTFSSSYISWVKQSSGQGLEWIAWIYAGTGGTGYNQKFTGRASITVDTSTSTAYMQLSSLTSEDTAIYYCAISASYRYDDLFAYWGQGTLVTVSS VL: QIVLTQSPASVSASPGEKVTITCSASSSVSSVHWYQQKSGTSPKRWIYDTSKLASGVPARFSGSGSGTSYSLTISSMETEDVATYYCQQWNSNPPTFGTGTKLEIKR |  | no binding (tested: log 3.6 on the axis (about 4000 ng/ml))

Source: US20220251211A1 (BEIJING SINOTAU BIO PHARMACEUTICALS TECHNOLOGY, published 2022)
